Holding throughout (assay): cell-based or functional assay
The target of assay [1] is H-GST-DEVD/X-mLIF with X = D (murine) (UniProt P09056).
Assay [2] has as its target H-GST-DEVD/X-mLIF with X = E (murine) (UniProt P09056).
Assay [3] concerns the target H-GST-DEVD/X-mLIF with X = proline (P) (murine) (UniProt P09056).

As for “murine Caspase-3 (from UniProt P70677 29-175; P70677 176-277) (enzyme)”, the inhibition of processing in assay [1] is 25%; in assay [2], 25%; in assay [3], 75%.

The values are drawn from US20060099689A1.
